Experimental findings from article PMC10375638 are described below.

The target of this experiment is T1, …3 (SEP3) fused to mVenus, expressed in N. benthamiana (Arabidopsis thaliana), O22456.
T1 chain: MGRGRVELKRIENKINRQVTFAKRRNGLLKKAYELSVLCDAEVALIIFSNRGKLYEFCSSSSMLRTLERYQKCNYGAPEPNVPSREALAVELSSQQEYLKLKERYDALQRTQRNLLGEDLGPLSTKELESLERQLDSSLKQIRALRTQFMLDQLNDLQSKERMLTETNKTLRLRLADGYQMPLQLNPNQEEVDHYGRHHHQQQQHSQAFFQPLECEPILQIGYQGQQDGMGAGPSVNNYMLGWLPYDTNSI
The experiment can be described thus: FRET or BRET; FLIM-FRET with one pattern analysis (OPA) in nuclei of transiently expressing N. benthamiana leaf epidermis cells; donor mVenus fusion, acceptor mCherry fusion; BINDING = relative amplitude of the FRET fraction; nucleoli excluded; FRET efficiency only for nuclei with BINDING above 10%. The conditions noted are these: remark: other sources report otherwise.

B1: …3 (SEP3) fused to mVenus, expressed in N. benthamiana, O22456 1-251 (natural protein)
chain: T1 chain
In the case of B1, the BINDING came out at 28.1% and the FRET efficiency was 38.5%.
